Reference: paper PMC9482650, “Quantitative fragmentomics allow affinity mapping of interactomes” (Nature Communications, 2022)

T1: RADIL, Q96JH8
T1 sequence (Q96JH8 971-1071, limits assumed, looked up): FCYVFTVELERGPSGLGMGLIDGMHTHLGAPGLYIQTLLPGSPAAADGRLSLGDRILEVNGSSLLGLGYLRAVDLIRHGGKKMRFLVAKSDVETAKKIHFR

T2: MPDZ_10, O75970
T2 sequence (O75970 1624-1722, limits assumed, looked up): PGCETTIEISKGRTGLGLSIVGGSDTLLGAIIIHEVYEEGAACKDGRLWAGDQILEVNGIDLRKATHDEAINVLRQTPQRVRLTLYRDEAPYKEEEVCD

T3: GRIP1_3, Q9Y3R0
T3 sequence (Q9Y3R0 247-346, limits assumed, looked up): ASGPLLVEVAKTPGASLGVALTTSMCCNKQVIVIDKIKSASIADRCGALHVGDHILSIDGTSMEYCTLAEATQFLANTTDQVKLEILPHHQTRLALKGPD

T4: NHERF3_1, Q5T2W1
T4 sequence (Q5T2W1 4-100, limits assumed, looked up): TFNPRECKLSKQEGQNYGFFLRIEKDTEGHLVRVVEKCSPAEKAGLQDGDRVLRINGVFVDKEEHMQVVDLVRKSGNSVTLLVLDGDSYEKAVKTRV

T5: LIN7A, O14910
T5 sequence (O14910 103-200, limits assumed, looked up): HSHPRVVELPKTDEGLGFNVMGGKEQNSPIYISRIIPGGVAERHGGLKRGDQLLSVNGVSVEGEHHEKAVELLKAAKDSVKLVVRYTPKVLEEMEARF

T6: GRIP1_2, Q9Y3R0
T6 sequence (Q9Y3R0 145-248, limits assumed, looked up): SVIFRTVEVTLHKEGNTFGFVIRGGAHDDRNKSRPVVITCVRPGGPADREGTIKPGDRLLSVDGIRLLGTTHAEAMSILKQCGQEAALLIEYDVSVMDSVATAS

T7: PCLO, Q9Y6V0
T7 sequence (Q9Y6V0 4491-4600, limits assumed, looked up): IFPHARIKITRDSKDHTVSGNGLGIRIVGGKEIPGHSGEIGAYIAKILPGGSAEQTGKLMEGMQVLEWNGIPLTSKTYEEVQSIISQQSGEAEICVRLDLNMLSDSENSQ

T8: GRIP1_7, Q9Y3R0
T8 sequence (Q9Y3R0 999-1096, limits assumed, looked up): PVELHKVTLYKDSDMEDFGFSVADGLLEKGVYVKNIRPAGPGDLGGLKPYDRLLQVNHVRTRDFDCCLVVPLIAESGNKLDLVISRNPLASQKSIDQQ

T9: TIAM2, Q8IVF5
T9 sequence (Q8IVF5 885-986, limits assumed, looked up): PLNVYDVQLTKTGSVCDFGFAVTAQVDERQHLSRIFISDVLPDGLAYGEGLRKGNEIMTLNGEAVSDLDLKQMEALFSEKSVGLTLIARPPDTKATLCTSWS

T10: APBA1_1, Q02410
T10 sequence (Q02410 651-752, limits assumed, looked up): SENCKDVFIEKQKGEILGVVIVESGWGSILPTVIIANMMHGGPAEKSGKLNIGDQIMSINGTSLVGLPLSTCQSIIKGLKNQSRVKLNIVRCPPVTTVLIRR


Tests used:
Test in all cases: holdup assay
Parameters in all cases: key: below the threshold = too weak to quantify, mostly under pKd 3.1 to 4
Settings in all cases: plain residues with an end cap or a label only (N-terminal biotin on a linker: ado-ado)
GIPC2, Q8TF65 = biological target: GIPC2, Q8TF65
Sequence of GIPC2, Q8TF65 (Q8TF65 112-203): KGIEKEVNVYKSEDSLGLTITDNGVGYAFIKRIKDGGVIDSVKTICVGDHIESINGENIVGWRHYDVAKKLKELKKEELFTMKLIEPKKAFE

MAGI2_3, Q86UL8 = biological target: MAGI2_3, Q86UL8
Sequence of MAGI2_3, Q86UL8 (Q86UL8 600-682): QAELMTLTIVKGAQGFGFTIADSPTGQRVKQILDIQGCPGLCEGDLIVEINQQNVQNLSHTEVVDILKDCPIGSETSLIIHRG

RADIL, Q96JH8 = biological target: T1, RADIL, Q96JH8
DLG2_3, Q15700 = biological target: DLG2_3, Q15700
MPDZ_10, O75970 = biological target: T2, MPDZ_10, O75970
Inadl_1, Q8NI35 = biological target: Inadl_1, Q8NI35
Sequence of Inadl_1, Q8NI35 (Q8NI35 113-229): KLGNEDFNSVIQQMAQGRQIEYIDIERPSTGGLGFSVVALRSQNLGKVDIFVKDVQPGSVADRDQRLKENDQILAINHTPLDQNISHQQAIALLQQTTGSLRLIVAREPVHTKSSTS

GRIP1_3, Q9Y3R0 = biological target: T3, GRIP1_3, Q9Y3R0
TJP1_2, Q07157 = biological target: TJP1_2, Q07157
Sequence of TJP1_2, Q07157 (Q07157 181-274): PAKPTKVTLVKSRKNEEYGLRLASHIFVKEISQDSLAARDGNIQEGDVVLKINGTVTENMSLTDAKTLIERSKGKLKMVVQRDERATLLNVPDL

SCRIB_3, Q14160 = biological target: SCRIB_3, Q14160
Sequence of SCRIB_3, Q14160 (Q14160 999-1103): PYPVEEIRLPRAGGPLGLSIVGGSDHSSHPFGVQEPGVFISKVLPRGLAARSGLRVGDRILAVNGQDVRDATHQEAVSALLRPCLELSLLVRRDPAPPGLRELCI

NHERF3_1, Q5T2W1 = biological target: T4, NHERF3_1, Q5T2W1
AHNAK1, Q09666 = biological target: AHNAK1, Q09666
Sequence of AHNAK1, Q09666 (Q09666 4-100): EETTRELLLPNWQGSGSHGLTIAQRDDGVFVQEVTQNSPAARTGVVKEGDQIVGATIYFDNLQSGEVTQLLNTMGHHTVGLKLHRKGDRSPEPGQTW

LDB3, O75112 = biological target: LDB3, O75112
Sequence of LDB3, O75112 (O75112 1-94): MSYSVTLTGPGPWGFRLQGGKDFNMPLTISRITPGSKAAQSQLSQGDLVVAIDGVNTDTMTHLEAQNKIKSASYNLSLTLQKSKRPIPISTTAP

LIN7A, O14910 = biological target: T5, LIN7A, O14910
DLG1_1, Q12959 = biological target: DLG1_1, Q12959
GRID2IP_1, A4D2P6 = biological target: GRID2IP_1, A4D2P6
Sequence of GRID2IP_1, A4D2P6 (A4D2P6 1-87): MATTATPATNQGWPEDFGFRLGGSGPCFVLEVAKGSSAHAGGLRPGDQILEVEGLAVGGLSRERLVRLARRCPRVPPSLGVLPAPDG

GRIP1_2, Q9Y3R0 = biological target: T6, GRIP1_2, Q9Y3R0
MAGI2_2, Q86UL8 = biological target: MAGI2_2, Q86UL8
Sequence of MAGI2_2, Q86UL8 (Q86UL8 410-522): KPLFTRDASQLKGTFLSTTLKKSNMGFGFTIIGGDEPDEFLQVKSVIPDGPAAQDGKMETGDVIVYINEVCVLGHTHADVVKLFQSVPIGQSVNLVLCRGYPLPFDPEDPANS

PCLO, Q9Y6V0 = biological target: T7, PCLO, Q9Y6V0
GRIP2_7, Q9C0E4 = biological target: GRIP2_7, Q9C0E4
Sequence of GRIP2_7, Q9C0E4 (Q9C0E4 934-1023): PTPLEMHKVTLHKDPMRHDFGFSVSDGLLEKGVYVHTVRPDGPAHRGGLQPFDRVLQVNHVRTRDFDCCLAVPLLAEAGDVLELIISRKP

TJP1_3, Q07157 = biological target: TJP1_3, Q07157
Sequence of TJP1_3, Q07157 (Q07157 416-512): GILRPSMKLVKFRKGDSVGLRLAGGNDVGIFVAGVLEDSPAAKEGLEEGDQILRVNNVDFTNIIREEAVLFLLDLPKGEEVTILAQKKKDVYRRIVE

DLG2_2, Q15700 = biological target: DLG2_2, Q15700
GORASP2, Q9H8Y8 = biological target: GORASP2, Q9H8Y8
DLG1_3, Q12959 = biological target: DLG1_3, Q12959
GRIP1_7, Q9Y3R0 = biological target: T8, GRIP1_7, Q9Y3R0
GOPC, Q9HD26 = biological target: GOPC, Q9HD26
TIAM2, Q8IVF5 = biological target: T9, TIAM2, Q8IVF5
NHERF4_4, Q86UT5 = biological target: NHERF4_4, Q86UT5
Sequence of NHERF4_4, Q86UT5 (Q86UT5 464-550): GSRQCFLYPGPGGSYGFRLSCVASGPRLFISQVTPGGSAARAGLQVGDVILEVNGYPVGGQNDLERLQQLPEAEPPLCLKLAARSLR

APBA1_1, Q02410 = biological target: T10, APBA1_1, Q02410

| Binder | pKd (GIPC2, Q8TF65) | pKd (MAGI2_3, Q86UL8) | pKd (RADIL, Q96JH8) | pKd (DLG2_3, Q15700) | pKd (MPDZ_10, O75970) | pKd (Inadl_1, Q8NI35) | pKd (GRIP1_3, Q9Y3R0) | pKd (TJP1_2, Q07157) | pKd (SCRIB_3, Q14160) | pKd (NHERF3_1, Q5T2W1) | pKd (AHNAK1, Q09666) | pKd (LDB3, O75112) | pKd (LIN7A, O14910) | pKd (DLG1_1, Q12959) | pKd (GRID2IP_1, A4D2P6) | pKd (GRIP1_2, Q9Y3R0) | pKd (MAGI2_2, Q86UL8) | pKd (PCLO, Q9Y6V0) | pKd (GRIP2_7, Q9C0E4) | pKd (TJP1_3, Q07157) | other results |
| --- | --- | --- | --- | --- | --- | --- | --- | --- | --- | --- | --- | --- | --- | --- | --- | --- | --- | --- | --- | --- | --- |
| APIAGFSSFV [SDK2, Q58EX2] | below the threshold | below the threshold | 5.17 | below the threshold | below the threshold | below the threshold | below the threshold | below the threshold | 4.06 | 5.08 | below the threshold | below the threshold | below the threshold | 4.21 | below the threshold | below the threshold | 3.5 | below the threshold | below the threshold | below the threshold | pKd (DLG2_2, Q15700): 3.86; pKd (GORASP2, Q9H8Y8): 4.03; pKd (DLG1_3, Q12959): below the threshold; pKd (GRIP1_7, Q9Y3R0): below the threshold; pKd (GOPC, Q9HD26): 4.13; pKd (TIAM2, Q8IVF5): below the threshold; pKd (NHERF4_4, Q86UT5): below the threshold; pKd (APBA1_1, Q02410): below the threshold |
| QSYPSKHDYV [CLDN18, P56856] | below the threshold | 3.62 | 4.35 | below the threshold | 3.64 | below the threshold | below the threshold | 3.61 | below the threshold | 4.26 | below the threshold | below the threshold | below the threshold | below the threshold | below the threshold | 3.58 | below the threshold | below the threshold | below the threshold | below the threshold | pKd (DLG2_2, Q15700): below the threshold; pKd (GORASP2, Q9H8Y8): 4.13; pKd (DLG1_3, Q12959): 3.49; pKd (GRIP1_7, Q9Y3R0): below the threshold; pKd (GOPC, Q9HD26): below the threshold; pKd (TIAM2, Q8IVF5): below the threshold; pKd (NHERF4_4, Q86UT5): 4.03; pKd (APBA1_1, Q02410): below the threshold |
| RFQQRMQTHV [KIRREL1, Q96J84] | below the threshold | 3.75 | 3.9 | 4.48 | below the threshold | below the threshold | below the threshold | below the threshold | 4.33 | 5.03 | below the threshold | below the threshold | below the threshold | 4.17 | below the threshold | below the threshold | 5.49 | below the threshold | 3.52 | below the threshold | pKd (DLG2_2, Q15700): 4.44; pKd (GORASP2, Q9H8Y8): 4.12; pKd (DLG1_3, Q12959): 3.68; pKd (GRIP1_7, Q9Y3R0): below the threshold; pKd (GOPC, Q9HD26): 3.91; pKd (TIAM2, Q8IVF5): 3.97; pKd (NHERF4_4, Q86UT5): below the threshold; pKd (APBA1_1, Q02410): below the threshold |
| REEPDHSTEV [CCRL2, O00421] | 4.01 | below the threshold | 3.96 | below the threshold | 3.7 | below the threshold | below the threshold | below the threshold | 4.35 | 4.57 | below the threshold | below the threshold | below the threshold | 4.49 | below the threshold | 3.5 | below the threshold | below the threshold | below the threshold | 3.48 | pKd (DLG2_2, Q15700): 4.5; pKd (GORASP2, Q9H8Y8): 3.48; pKd (DLG1_3, Q12959): below the threshold; pKd (GRIP1_7, Q9Y3R0): 3.56; pKd (GOPC, Q9HD26): 3.56; pKd (TIAM2, Q8IVF5): below the threshold; pKd (NHERF4_4, Q86UT5): below the threshold; pKd (APBA1_1, Q02410): below the threshold |
